Measured values reported in patent US20260356970 (published 2026).
Values belong to the binder of their own block, whether it stands above or below them.

Target: T1, EMR2 (human, UniProt Q9UHX3)
T1 chain: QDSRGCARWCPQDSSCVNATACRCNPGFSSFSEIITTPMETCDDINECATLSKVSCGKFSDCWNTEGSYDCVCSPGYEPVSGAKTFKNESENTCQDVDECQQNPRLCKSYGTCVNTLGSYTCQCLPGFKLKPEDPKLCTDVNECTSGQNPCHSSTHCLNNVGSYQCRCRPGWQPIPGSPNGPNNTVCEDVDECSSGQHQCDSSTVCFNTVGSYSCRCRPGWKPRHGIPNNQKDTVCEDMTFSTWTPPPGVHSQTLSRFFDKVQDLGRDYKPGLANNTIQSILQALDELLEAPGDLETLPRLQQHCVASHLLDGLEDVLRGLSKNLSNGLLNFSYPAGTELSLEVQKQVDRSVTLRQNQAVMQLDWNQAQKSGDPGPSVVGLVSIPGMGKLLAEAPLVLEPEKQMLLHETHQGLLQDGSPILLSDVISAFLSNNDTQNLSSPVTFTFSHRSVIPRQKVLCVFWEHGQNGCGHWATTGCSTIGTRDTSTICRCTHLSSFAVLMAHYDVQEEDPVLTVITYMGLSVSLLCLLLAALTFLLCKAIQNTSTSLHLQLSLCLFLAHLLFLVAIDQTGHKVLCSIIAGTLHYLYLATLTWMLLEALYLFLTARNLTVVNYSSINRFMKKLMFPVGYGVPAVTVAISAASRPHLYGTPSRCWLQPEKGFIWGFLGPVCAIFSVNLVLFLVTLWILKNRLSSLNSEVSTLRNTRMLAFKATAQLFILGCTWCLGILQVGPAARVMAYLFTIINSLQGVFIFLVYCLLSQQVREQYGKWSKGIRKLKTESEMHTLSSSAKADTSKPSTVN
Assay: ELISA

EC50: < 1 nM
B1: EMR2-1-scFv (antibody, V domains shown)
VH: QVQLVQSGAEVKKPGASVKVSCKASGYTFTSYGISWVRQAPGQGLEWMGWISAYNGNTNYAQKLQGRVTMTTDTSTSTAYMELRSLRSDDTAVYYCARGYAFDIWGQGTMVTVSS
VL: SYELTQPLSVSVALGQTARITCGGNNIGSKNVHWYQQKPGQAPVLVIYRDSNRPSGIPERFSGSNSGNTATLTINRAQAGDEADYYCQVWDSSTVVFGGGTELTVL

EC50: < 1 nM
B2: EMR2-3-VH (designed binder)
chain: QVQLVQSGGGLVQPGGSLRLSCAASDFSFDSYEMSWVRQAPGKGLEWVSSISASGGRTFYADSVKGRFTISRDNSKNTLYLQMNTLRAEDTALYYCARHPGIMGQGTLVTVSS

EC50: < 1 nM
B3: EMR2-2-scFv (antibody, V domains shown)
VH: QVQPVESGGGLVQPGGSLRLSCAASGFTFSSYEMNWVRQAPGKGLEWVSAISGGGGSTYYADSVKGRFTISRDNSKNTLYLQMNSLRAEDTAVYYCAKSGRGWAAAGRWGQGTLVTVSS
VL: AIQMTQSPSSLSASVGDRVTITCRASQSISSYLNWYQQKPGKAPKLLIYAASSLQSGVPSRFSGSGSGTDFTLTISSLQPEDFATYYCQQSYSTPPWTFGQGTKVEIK
